Measurements as given in patent US12116636B2, “Methods for evaluating tumor cell spheroids using 3D microfluidic cell culture device” (Dana-Farber Cancer Institute, Inc., priority 2017, dated 2024).

System: MC38 MDOTS
Assay: RNA-seq of MDOTS after ex vivo treatment
Assay type: cell-based, murine
Conditions: Day 6
From the text: RNA is collected from a subset of the MDOTs within the device after the supernatants have been collected and cDNA libraries for RNA sequencing is generated to evaluate global transcriptome changes associated with treatment regimen on single samples per drug treatment. These types of data may be generated from a variety of clinical specimens. The RNA Advance tissue RNA isolation method (Beckman Coulter) is utilized, which is a bead wash based separation technique, which facilitates elution volumes amenable to sample input for RNA-Seq library preparation. Automated library preparation can be performed using as little as 10 ng of good quality RNA. The RNA Access method from Illumina is utilized, which enriches for the coding region of the genome. Libraries are sequenced on the NextSeq500 platform, as 75 bp Single End to generate approximately 20 million reads per sample. With appropriate adaptors, 24 samples are multiplexed on each NextSeq500 run. The concentration [ng/ul], yield [ng] and quality of RNA (high RIN #by bioanalyzer) derived from the MDOTS are more than sufficient to ensure good quality libraries for subsequent sequencing (FIG. 15).
The STAR RNA sequencing alignment tool (Spliced Transcripts Alignment to a Reference) [STAR_2.5.0a]) is utilized to align the data to the genome (RefSeq gene annotations). […]

B1: IFNγ: interferon gamma used as MC38 MDOTS treatment in RNA-seq (protein, UniProt P01580 23-155, looked up)
Interferon gamma: HGTVIESLESLNNYFNSSGIDVEEKSLFLDIWRNWQKDGDMKILQSQIISFYLRLFEVLKDNQAISNNISVIESHLITTFFSNSKAKKDAFMSIAKFEVNNPQVQRQAFNELIRVVHQLLPESSLRKRKRSRC
B1 was tested, and the “expression of IFNγ genes incl. CXCL10, CXCL11, PD-L1, IDO1, IDO2 (RNA-seq) in MC38 MDOTS” value was “induced”.
